Experimental data taken from the supplement of paper PMC12764529.
± gives the half width of the 95% confidence interval.

Legend:
[1] = folding stability dG unfold from trypsin proteolysis; higher = more stable
Procedure, shortened: (§1)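 K50 was inferred by Bayesian fitting of sequencing counts obtained after protease digestion of designed mini-proteins. Unfolding free energy was derived by comparison with a sequence-predicted unfolded-state K50 and a shared folded-state K50, for each protease or both combined. The mini-proteins were under 80 residues, had no cysteine, were carried in a PA-tagged cDNA display construct, and were kept only if AlphaFold2 dimer inter-PAE exceeded 15.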

[2] = folding stability dG unfold from chymotrypsin proteolysis; higher = more stable
Procedure, shortened: as §1

[3] = folding stability dG unfold (combined trypsin and chymotrypsin); higher = more stable
Procedure, shortened: as §1

Row | Sequence | folding stability dG unfold [1] [kJ/mol] | folding stability dG unfold [2] [kJ/mol] | folding stability dG unfold [3] [kJ/mol]
1 | SAGGSAGGSAGGALLVTPTPDGYIARVKDPNSDSWTVVPLSPEELEELAAAGVPTVEVLPSAGGSAGGSAGG [r7_266_JUSTAS] | -1.41 ± 1.34 | 6.12 ± 0.268 | 4.55 ± 0.669
2 | SAGGLPPGWKPIDIMVLVPPGEPLTEDQVEELAKEIARELQEKGVTIDVRVWPTDDWYFVSVDIQVPDSAGG [r13_442_TrROS] | 8.69 ± 0.46 | 5.47 ± 0.544 | 7.25 ± 0.753
3 | SAGGSMKIEKLPDGKTVVIETVDEETNTITRTRFKLDKDGKLVEMEVETITLPAPPPEEVDEDGKESAGGSA [r2_375_TrROS_Hall] | 8.02 ± 0.41 | 9.61 ± 0.385 | 9.1 ± 0.669
4 | SAGGSAGGSAGGMIEKIEVTKLPDGTYKVTITIPLPNGPVITKTITIPPSETVEDAIAKLSAGGSAGGSAGG [r7_54_JUSTAS] | 10.6 ± 0.167 | 9.18 ± 0.0502 | 9.66 ± 0.192
5 | SAGGSAGGKIAVIPYVPEEDIPPELRELFGKEGSLSPEEFQELFAEAVARELGEEGAIDAVIVESAGGSAGG [r6_654_TrMRF] | 2.59 ± 0.134 | 3.02 ± 0.155 | 3.26 ± 0.628
6 | SAGMKITLPKGVKSIKVEEVNGKKVIYIEVDGKIFVYDLKTGKLYIYDKKTGEKKEITIKKGDTITLKSAGG [r19_138_TrROS_Hall] | 4.33 ± 0.117 | 7.47 ± 0.28 | 6.48 ± 0.293
7 | SAGGSAKKTLKIKVKTPKGGLKTIEIPDSVKKIDIIPGKDYVKIIIYNPKTKKKIELPPFKVIEISSAGGSA [r15_133_TrMRF] | 5.28 ± 0.197 | 8.39 ± 0.13 | 7.47 ± 0.36
8 | SAGGSAGGSAGMKTVTVTVPPSAGVDAVREALAAQGMTVTSVSREGDTLTVTTEAPPELLSAGGSAGGSAGG [r11_672_JUSTAS] | -3.62 ± 0.586 | 1.23 ± 0.335 | 0.101 ± 0.544
9 | SAGGSAGGSMSTTETTVTEVTITVRSDGKVSREVKVTVTTTTTITPAGGTATVTTTTTRTPLESAGGSAGGS [r12_409_JUSTAS] | 4.21 ± 0.222 | 5.42 ± 0.0753 | 4.98 ± 0.213
10 | SAGGSAGGSAGMKTLKIASISTSTSPTNTTLTTVTITSEGVTTTVTFPPGTTLEEVLEQLSAGGSAGGSAGG [r11_1056_JUSTAS] | 2.22 ± 0.205 | 2.84 ± 0.46 | 2.87 ± 0.418
11 | SAGGSSVLINHTKTFSSEEEAEKEAEELKEKAKKEGFDEVKVEISKDPSGGTYTLKVTIKKKLPPDLKSAGG [r19_92_JUSTAS] | 8.22 ± 0.326 | 13.4 ± 0.301 | 12 ± 1.09
12 | SAGGSAGGSAGMVKLRFEVKFKIKLLGEGETNEVVEVDVKVEFEVTLPPFKVRPDGSLLESAGGSAGGSAGG [r11_558_TrMRF] | 13.4 ± 1 | 18.4 ± 0.628 | 16.9 ± 0.879
13 | SAGGSAGGSADNKPFKVEIDVEHHPPNGYYRVTIEWPDGREIVVWMPGNPDEAKDQAKELISAGGSAGGSAG [r3_143_TrROS] | 5.37 ± 0.167 | 5.26 ± 0.92 | 5.48 ± 0.669
14 | SAGGSAGGSANMPPEELADWIADKFQQRHGHPVKEIEVEHDPENNNYTITVEFDDKERTITLSAGGSAGGSA [r18_145_TrROS] | -1.14 ± 0.628 | 3.51 ± 1.17 | 2.47 ± 0.92
15 | SAGGSAGGSAGGAEELAKELAEKLGLEKKKVLIKLPNGKVVEVTIEDLKKLNLKNAEIVPSAGGSAGGSAGG [r7_863_TrROS_Hall] | 3.79 ± 0.218 | 2.06 ± 0.502 | 3.29 ± 0.753
16 | PKWYEMNITINLPPDDPQKVKELKDALKKRNPDYKVKDIQFNPDDGQITINVWMPPQDQNRFQKAIKELLGS [r1_443_TrROS] | 7.77 ± 0.259 | 9.65 ± 0.105 | 8.87 ± 0.351
17 | SAGGMTPEEKEEIAKKFAEELLKKLKEGDPNVKVETEVDPEKGVVKIKVINLNTKKPKTIEIPFSELASAGG [r13_354_TrMRF] | 7.34 ± 0.218 | 7.67 ± 0.142 | 7.4 ± 0.418
18 | SAGGSAGGSAGGSMSSTVTTTLVEVGPPNGKRVLVRRTTTTFPDGSVTTTVTVLSTTIASAGGSAGGSAGGS [r4_496_JUSTAS] | 7.71 ± 0.113 | 10.9 ± 0.138 | 9.91 ± 0.264
19 | SAGGSAGGKIEEIAKKLNLEVESIEYDKETKKVTVTIKVNGKLYKIEIYVENGKIVKIKIEELPSAGGSAGG [r6_373_TrROS_Hall] | 13.8 ± 0.837 | 18 ± 1.05 | 16.8 ± 0.962
20 | SGMKSVTTPVSLTINTSPEEAEEFIEKLAKERGIEDVTVVKVTTDPATGTLTVEAELHTTIPPLPPPSSVSA [r9_918_JUSTAS] | 4.48 ± 0.184 | 4.91 ± 0.255 | 4.6 ± 1.13
21 | SAGGRVRLEEVEILPPLEDPEDNPDRPLLLLRVRARVEYDTPEGPREEERELVLVVSPERLEEALEALSAGG [r13_149_TrMRF] | 3.32 ± 0.314 | 6.78 ± 0.544 | 5.74 ± 0.669

Row | Sequence | folding stability dG unfold [1] [kJ/mol] | folding stability dG unfold [2] [kJ/mol] | folding stability dG unfold [3] [kJ/mol]
22 | SMKIPVKTNDPEALKELLNKIKEILEKAKEKGYEIFPIPIILDNGKEIIFPIDPNDKIEEVIKKIEEALKSA [r9_127_TrMRF] | 11.3 ± 0.628 | 5.77 ± 0.406 | 8.44 ± 0.962
23 | SAGGSAGGSPELKISFPGFEGAEVELDPETNIATVRVKLPDKELELKVRIDDDGITIVEVREVSAGGSAGGS [r20_60_TrMRF] | 8.14 ± 0.293 | 7.78 ± 0.226 | 8.1 ± 0.586
24 | PFDIRINVEYERDPDNGKEYIEVSIMVWDGNPEQARDIAKEILEEHFGWKIKDVKVERFPDMYMITFKIRLS [r1_337_TrROS] | 14.5 ± 0.502 | 17.5 ± 0.343 | 15.8 ± 1.34
25 | SAGGSADNIEFKFPGIEEVTVWPDKIMFKLPNGYYYVITINNIDEIEIIEVIPPVPPPPPEDPDDKSAGGSA [r15_393_TrROS] | 9.95 ± 1.63 | 9.58 ± 0.46 | 10 ± 1.42
26 | SETVEIEIELPDGTKVTITVDKDGKVHITIEVPEDNPELLEKGSIEELAKKLAEELGLSEKDVEVTVLPPSA [r9_401_TrROS_Hall] | 12.5 ± 1.21 | 10.3 ± 1 | 11.7 ± 1.13
27 | SMKKVLIVTPNPEINPEEVVKALKEKGFKEIKVFSTPEELKEALPEYDIVIIEENGKLYIKYIPPGKLAKSA [r9_750_TrMRF] | 1.4 ± 0.711 | 7.49 ± 0.502 | 5.64 ± 1.13
28 | SAGGSAGGSDKIKELAKKLKIVKVEKKKDGKYILLVKDEKTGKLYEIEVDLKTNKVTIKELKPSAGGSAGGS [r12_944_TrROS_Hall] | 11.7 ± 1.09 | 18 ± 0.544 | 16 ± 1.63
29 | SAGEVELKIVLPKEEIEKILEALRKLAEEAGLEVEVEKIEKKEDGYYVITVTVKFKETEKEIKIEIIIPSAG [r5_41_TrROS_Hall] | 12.5 ± 2.13 | 10.7 ± 0.502 | 11.2 ± 1.3
30 | SAGGMMYLIKVDTKEELKELAEAPGAKIVEEKEVNGKLYLLIEFPPGVTKIKIDVETRKIVEIEKLPSAGGS [r8_251_TrROS_Hall] | 3.18 ± 0.544 | 6.61 ± 0.628 | 5.73 ± 1.09
31 | SAGGSAGGMKITKIESVEPNPENGMVSLEMKIENGASILIHYNPDNGKVTIMVFKPNEIEPIELSAGGSAGG [r6_796_TrROS] | 5.28 ± 0.385 | 8.01 ± 0.301 | 7.36 ± 0.372
32 | SAGGSAGGKITINGKEYEIVEVKYDKETNTLHFLIKNKDGTLLKISISPNGKIEIKEVPAEELLSAGGSAGG [r6_699_TrROS_Hall] | 14.2 ± 0.962 | 15.6 ± 0.502 | 15.8 ± 0.962
33 | SAGGMPPVKVPVKVTISMKDPKTGKTFTVPVEKVATSEEDLEEIKKEVEELAKELKEKGYKEIEIKIESAGG [r13_360_JUSTAS] | 8.97 ± 0.255 | 13.1 ± 0.335 | 12 ± 0.418
34 | SSEELRELILNEAAKLGVKIKEIKVKEDPSTNTVSIEITVPDGKVIKLSFTRTSDGGYSYDINELKAGLESA [r9_85_JUSTAS] | 22.4 ± 1.46 | 25.9 ± 0.586 | > 25.1
35 | SAGGSAGGKKEIKIYLVSDLPEEDAIETAEKIKKGLAEELGVSPEELNITVEVAILDPENLELNPESAGGSA [r15_918_TrMRF] | 0.748 ± 0.205 | 0.0674 ± 0.201 | 0.42 ± 0.628
36 | SMIIPPELGFEEAVELIKELLEPEKTYLVVTGDPETGTLSVARLDPETGEVEVEPLPTTEGESFVAVFEISA [r9_1059_TrMRF] | 4.57 ± 0.184 | 5.45 ± 0.247 | 5.29 ± 0.293
37 | SAGGSAGGSAGGGMAITTRPGSSEVSTTPVPSDVTASTTTPLASGEPVEVTYERVGDPTLSAGGSAGGSAGG [r7_21_JUSTAS] | 1.69 ± 0.092 | -2.2 ± 0.669 | 0.327 ± 0.331
38 | SAGGSAGGSAGGEEEYVTLTIKVYDPKTREPVKEITIVLPKKNMTPEQLRELLKELGIEVSAGGSAGGSAGG [r7_903_TrROS_Hall] | 12 ± 0.502 | 12.6 ± 0.347 | 12.5 ± 0.962
39 | SAGGSAGGSAGGSELIFKTEDGYYVKVKLKNGKTIVFPAENLEELKKLNVEKVEVVPAKSAGGSAGGSAGGS [r4_348_TrROS_Hall] | 1.39 ± 0.163 | 3.48 ± 0.176 | 2.86 ± 0.268
40 | SAGGSSVTTTVSEETLPDGLRLLTTTTTTTTVPGKPDLRITTVTTTALDPVTGETTAVGTSTTVVAPSAGGS [r8_65_JUSTAS] | 1.3 ± 0.159 | 3.33 ± 0.113 | 2.64 ± 0.36
41 | MTPDDMKDPNGMPPEDMWMVEIYVPRRDPEDGGPKWKPVGTIFIPPGMDPEELNEIIEELPGLDLIEIYPMS [r1_132_TrROS] | 4.33 ± 0.372 | 5.95 ± 0.18 | 5.56 ± 0.586
42 | SAGPKVKLIKAEFFPDGRLVVYAEVESSNGEPAFAVGVFDPRNPNKAHVKVYNPSTGKVSEFEVTVTPGSAG [r5_345_TrMRF] | 10.8 ± 0.226 | 13.6 ± 0.176 | 12.6 ± 0.146
